In patent publication CN111793131A:

Legend:
[1] = target: PF4全抗原 (血小板因子4, platelet factor 4) (Homo sapiens (Human)) (UniProt P02776); assay: chemiluminescent ELISA, antigen coated at 2ug/ml, 10ul antibody, HRP goat anti-mouse IgG, luminol (blank 3280)
[2] = target: PF4全抗原 (血小板因子4, platelet factor 4) (Homo sapiens (Human)) (UniProt P02776); assay: chemiluminescent ELISA, antigen coated at 2ug/ml, 2ul antibody, HRP goat anti-mouse IgG, luminol (blank 3280)
[3] = target: PF4全抗原 (血小板因子4, platelet factor 4) (Homo sapiens (Human)) (UniProt P02776); assay: chemiluminescent ELISA, antigen coated at 2ug/ml, 50ul antibody, HRP goat anti-mouse IgG, luminol (blank 3280)

Sequence of UniProt P02776 (P02776 32-101 limits assumed): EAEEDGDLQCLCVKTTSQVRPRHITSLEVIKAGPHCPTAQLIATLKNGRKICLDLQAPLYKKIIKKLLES

- 发光值 [1]: 256000
- 发光值 [2]: 63000
- 发光值 [3]: 994000
B1: 单克隆抗体AntiPF4_N (杂交瘤来源, 实施例1) (antibody, V domains shown)
VH: EVKLEESGGGLVQPGGSMKLSCVASGFTFSNYWMNWVRQSPEKGLEWVAEIRLKSNNYATHYAESVKGRFTISRDDSKSSVYLQMNNLRAEDTGIYYCTGYDFDYWGQGTTLTVSS
VL: DVVMTQTPLSLPVSLGDQASISCRSSQSLVHNYGNTFLHWYLQKPGQSPKLLIYSTSNLFSGVPDRFSGSGSGTDFTLKISRVEAEDLGVYFCSQSTHVPPTFGGGTKLEI
